{
  "source": "patent US6034062A",
  "about": "“Bone morphogenetic protein (BMP)-9 compositions and their uses” (Genetics Institute, Inc., priority 1997, dated 2000)",
  "molecules": {"B1": {"name": "BMP-4: BMP protein, cytokine in cartilage assay and competing ligand (protein)", "chain": "SPKHHSQRARKKNKNCRRHSLYVDFSDVGWNDWIVAPPGYQAFYCHGDCPFPLADHLNSTNHAIVQTLVNSVNSSIPKACCVPTELSAISMLYLDEYDKVVLKNYQEMVVEGCGCR"}, "B2": {"name": "BMP-6: BMP protein, cytokine in cartilage assay and competing ligand (protein)", "chain": "SASSRRRQQSRNRSTQSQDVARVSSASDYNSSELKTACRKHELYVSFQDLGWQDWIIAPKGYAANYCDGECSFPLNAHMNATNHAIVQTLVHLMNPEYVPKPCCAPTKLNAISVLYFDDNSNVILKKYRNMVVRACGCH"}, "B3": {"name": "BMP-12: BMP protein used as unlabeled competing ligand (protein, UniProt Q7Z4P5 322-450, looked up)", "Growth/differentiation factor …": "TALAGTRTAQGSGGGAGRGHGRRGRSRCSRKPLHVDFKELGWDDWIIAPLDYEAYHCEGLCDFPLRSHLEPTNHAIIQTLLNSMAPDAAPASCCVPARLSPISILYIDAANNVVYKQYEDMVVEACGCR"}, "B4": {"name": "BMP-7: BMP protein used as unlabeled competing ligand (protein)", "chain": "STGSKQRSQNRSKTPKNQEALRMANVAENSSSDQRQACKKHELYVSFRDLGWQDWIIAPEGYAAYYCEGECAFPLNSYMNATNHAIVQTLVHFINPETVPKPCCAPTQLNAISVLYFDDSSNVILKKYRNMVVRACGCH"}, "B5": {"name": "TGF-β2: transforming growth factor β2 (protein)", "chain": "ALDAAYCFRNVQDNCCLRPLYIDFKRDLGWKWIHEPKGYNANFCAGACPYLWSSDTQHSRVLSLYNTINPEASASPCCVSQDLEPLTILYYIGKTPKIEQLSNMIVKSCKCS"}, "B6": {"name": "BMP-5: BMP protein used as unlabeled competing ligand (protein)", "chain": "AANKRKNQNRNKSSSHQDSSRMSSVGDYNTSEQKQACKKHELYVSFRDLGWQDWIIAPEGYAAFYCDGECSFPLNAHMNATNHAIVQTLVHLMFPDHVPKPCCAPTKLNAISVLYFDDSSNVILKKYRNMVVRSCGCH"}, "B7": {"name": "BMP-3: BMP protein used as unlabeled competing ligand (protein)", "chain": "QWIEPRNCARRYLKVDFADIGWSEWIISPKSFDAYYCSGACQFPMPKSLKPSNHATIQSIVRAVGVVPGIPEPCCVPEKMSSLSILFFDENKNVVLKVYPNMTVESCACR"}},
  "data": [
    {"test_system": "Articular cartilage explants from calf carpal joints", "test": "Articular cartilage assay (proteoglycan synthesis, sulfate incorporation)", "assay_type": "cell-based", "details": "100 ng/ml, calf articular cartilage explants", "description": "The effect of BMP-9 on articular cartilage proteoglycan and DNA synthesis is assayed to determine if BMP-9 is involved in the regulation of metabolism of differentiated articular cartilage.\nArticular cartilage explants from calf carpal joints are maintained in DMEM with 50 μg/ml ascorbate, 4 mM glutamine and antibiotics for 3 days. Cytokines (rhBMP-2, rhBMP-4, rhBMP-6 and rhBMP-9, IGF-1, bFGF (1-1000 ng/ml), and TGFβ (1-100 ng/ml)) are added to the medium and culture is continued for 3 more days. Medium is changed daily. Twenty-four hours prior to harvest, explants are pulsed with 50 μCi/ml ^35 SO4 or 25 μCi/ml ^3 H-thymidine. Explants are solubilized and separation of free isotope is performed by gel chromatography. Total DNA of each explant is measured by a spectrophotometric assay.", "values": [
      {"molecule": "B1", "proteoglycan synthesis": "significantly more active in stimulating proteoglycan synthesis"},
      {"molecule": "B2", "proteoglycan synthesis": "significantly more active in stimulating proteoglycan synthesis"}
    ]},
    {"test_system": "BMP-9 receptors expressed on HepG2 cells", "test": "125I-BMP-9 binding to HepG2 cells", "details": "HepG2 cells, 125I-BMP-9 and 250-fold excess of unlabeled ligand", "description": "BMP-9 responsiveness in parenchymal liver cells is tested by screening four liver cell lines for their ability to bind iodinated, CHO-derived BMP-9. […] Specific binding of BMP-9 to HepG2 cells is carried out by incubating HepG2 cells grown to confluence in Dulbecco's Modified Eagle's Medium (DME) containing 10% heat-inactivated fetal calf serum (FCS) on gelatinized 6 well plates with 2 ng/ml ^125 I-BMP-9 and increasing concentrations of unlabelled BMP-9 in binding buffer (136.9 mM NaCl, 5.37 mM KCl, 1.26 mM CaCl2, 0.64 mM MgSO4, 0.34 mM Na2 HPO4, 0.44 mM KH2 PO4, 0.49 mM MgCl2, 25 mM HEPES and 0.5% BSA, pH 7.4) for 20 hours at 4° C. to achieve binding equilibrium. This incubation follows a one hour preincubation at 37° C. in binding buffer alone. For crosslinking experiments, the cells were incubated with 500 μM disuccinimidyl suberate for 20 minutes at […] following binding. Cell extracts were analyzed on SDS-PAGE. […] To test the binding specificity of the receptors for BMP-9, HepG2 cells were incubated with ^125 I-BMP-9 and a 250-fold excess of different unlabeled ligands.", "values": [
      {"molecule": "B3", "crossreactivity of BMP-9 receptors with unlabeled ligand": "no crossreactivity"},
      {"molecule": "B1", "crossreactivity of BMP-9 receptors with unlabeled ligand": "limited crossreactivity"},
      {"molecule": "B2", "crossreactivity of BMP-9 receptors with unlabeled ligand": "no crossreactivity"},
      {"molecule": "B4", "crossreactivity of BMP-9 receptors with unlabeled ligand": "no crossreactivity"},
      {"molecule": "B5", "crossreactivity of BMP-9 receptors with unlabeled ligand": "no crossreactivity"},
      {"molecule": "B6", "crossreactivity of BMP-9 receptors with unlabeled ligand": "no crossreactivity"},
      {"molecule": "B7", "crossreactivity of BMP-9 receptors with unlabeled ligand": "no crossreactivity"}
    ]}
  ]
}
